In patent US20220306744A1 (CRESCENDO BIOLOGICS, published 2022):
Where a chain is given by its changes, count along the chain named. Each block holds one binder with its values, some of them ahead of it.

Target: T1, human PD-1 expressed on cells (CHO TREX human PD1 cell line, full-length human PD-1 sequence) (human, UniProt Q15116 21-288)
T1 construct: Also used for human PD-1 on Jurkat reporter cells, on PathHunter cells and on PHA-stimulated human CD4+ T cells; also called CHO human PD1 cells; CHO human PD-1 cells
Experiment: worded summary of the screens

T1 sequence (Q15116 21-288): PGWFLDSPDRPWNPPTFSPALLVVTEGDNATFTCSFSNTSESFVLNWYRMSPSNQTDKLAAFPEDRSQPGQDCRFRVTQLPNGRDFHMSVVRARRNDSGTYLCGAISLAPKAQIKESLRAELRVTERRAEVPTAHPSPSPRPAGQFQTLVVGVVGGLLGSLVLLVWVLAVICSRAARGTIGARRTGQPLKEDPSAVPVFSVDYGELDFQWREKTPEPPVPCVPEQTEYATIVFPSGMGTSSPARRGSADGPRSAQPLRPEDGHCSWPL

B1: 1.48b (VHH)
VHH: QVQLVESGGGLVKPGGSLRLSCAASGFTFSDSSMTWMRQAPGKGLEWVSYISSGGGVKFYADSVKGRFTISRDNAKNSLYLQMNSLRADDTAVYYCAREAPLRLGESPHDAFDIWGQGTMVTVSS
binding result: binds

B2: 1.50b (VHH)
VHH: B1 VHH with S32N, G56T, V57I
binding result: binds

B3: 1.66b (VHH)
VHH: B1 VHH with A61T, N84D, I114T, W115S
binding result: binds

B4: 1.67b (VHH)
VHH: B1 VHH with D31G, K58I, W115S
binding result: binds

B5: 1.84b (VHH)
VHH: B1 VHH with Q1E, S32E, A61T, D89E, W115S
binding result: binds

B6: 1.65b (VHH)
VHH: B1 VHH with W115S
binding result: binds

B7: 1.85b (VHH)
VHH: B1 VHH with Q1E, S32Y, A61T, D89E, W115S
binding result: binds

B8: 1.63b (VHH)
VHH: B1 VHH with Q1E, A61T, W115S
binding result: binds

B9: 1.82b (VHH)
VHH: B1 VHH with Q1E, S32T, A61T, D89E, W115S
binding result: binds

B10: 1.87b (VHH)
VHH: B1 VHH with Q1E, S32K, A61T, D89E, W115S
binding result: binds

B11: 1.51b (VHH)
VHH: B1 VHH with G56A, A61T
binding result: binds

B12: 1.77b (VHH)
VHH: B1 VHH with Q1E, A61T, D89E, W115S
notes: also called Humabody 1.77b
binding result: binds

B13: 1.71b (VHH)
VHH: B1 VHH with S30G, D31G, A61T, W115S
binding result: binds

B14: 1.52b (VHH)
VHH: B1 VHH with S32N, F59Y
binding result: binds

B15: 1.68b (VHH)
VHH: B1 VHH with S30G, S32N, K58I, W115S, Q117R, M120T
binding result: binds

B16: 1.53b (VHH)
VHH: B1 VHH with S32N, G56S
binding result: binds

B17: 1.49b (VHH)
VHH: B1 VHH with T35S, S53T
binding result: binds

B18: 1.79b (VHH)
VHH: B1 VHH with Q1E, M37K, D89E, W115S
binding result: binds

B19: 1.75b (VHH)
VHH: B1 VHH with Q1E, M37I, A61T, D89E, W115S
binding result: binds

Now from value to binder:

binding result: binds
B20: 1.83b (VHH)
VHH: B1 VHH with Q1E, S32E, M37F, A61T, D89E, W115S

binding result: binds
B21: 1.69b (VHH)
VHH: B1 VHH with S32N, T35S, K58I, W115S

binding result: binds
B22: 1.72b (VHH)
VHH: B1 VHH with T35S, K58I, W115S

binding result: binds
B23: 1.64b (VHH)
VHH: B1 VHH with Q1E, W115S
notes: also called Humabody 1.64b

binding result: binds
B24: 1.56b (VHH)
VHH: B1 VHH with S32N, G56A, W115L

binding result: binds
B25: 1.74b (VHH)
VHH: B1 VHH with Q1E, M37I, A61T, W115S

binding result: binds
B26: 1.89b (VHH)
VHH: B1 VHH with Q1E, S32Y, D89E, W115S

binding result: binds
B27: 1.62b (VHH)
VHH: B1 VHH with G56A, A61T, W115S

binding result: binds
B28: 1.73b (VHH)
VHH: B1 VHH with S25T, S53A, K58R, A61T, W115S

binding result: binds
B29: 1.54b (VHH)
VHH: B1 VHH with S32D, K58I

binding result: binds
B30: 1.81b (VHH)
VHH: B1 VHH with Q1E, M37V, D89E, W115S

binding result: binds
B31: 1.78b (VHH)
VHH: B1 VHH with Q1E, M37I, D89E, W115S

binding result: binds
B32: 1.86b (VHH)
VHH: B1 VHH with Q1E, S32A, A61T, D89E, W115S

binding result: binds
B33: 1.58b (VHH)
VHH: B1 VHH with S32N, S33T, S53T

binding result: binds
B34: 1.91b (VHH)
VHH: B1 VHH with Q1E, S32Q, D89E, W115S

binding result: binds
B35: 1.70b (VHH)
VHH: B1 VHH with S30G, G56A, A61T, W115S

binding result: binds
B36: 1.76b (VHH)
VHH: B1 VHH with Q1E, M37I, W115S

binding result: binds
B37: 1.60b (VHH)
VHH: B1 VHH with S32N, S53T, F59Y

binding result: binds
B38: 1.92b (VHH)
VHH: B1 VHH with Q1E, S32E, D89E, W115S
notes: also called Humabody 1.92b

binding result: binds
B39: 1.90b (VHH)
VHH: B1 VHH with Q1E, S32V, D89E, W115S

binding result: binds
B40: 1.59b (VHH)
VHH: B1 VHH with S32N, T35S, G56S

binding result: binds
B41: 1.80b (VHH)
VHH: B1 VHH with Q1E, D89E, W115S

binding result: binds
B42: 1.55b (VHH)
VHH: B1 VHH with S32N, W115S

binding result: binds
B43: 1.88b (VHH)
VHH: B1 VHH with Q1E, S32R, A61T, D89E, W115S
